Test [1] has as its system GFP-Luciferase driven by a promoter induced by the dimerized TF. Briefly: In vivo model for a dimerizer-inducible system (Xenogen imaging of luciferase after rapamycin). Also on record: species or system mouse. As to conditions: rapamycin 2 mg/kg IP. An excerpt: Four groups of three mice received IV injection of AAV vectors encoding bicistronic reporter genes (GFP-Luciferase) at doses of 3×10^10, 1×10^11 and 3×10^11 particles of virus, respectively: Group 1 (G 1, G2, and G3) received AAV vectors expressing GFP Luciferase under the control of ubiquitous constitutive CMV promoter (see FIG. 16A for a diagram of the DNA construct). Group 2 (G4, G5, and G6) received co-injection of the following 2 AAV vectors: (1) AAV vector expressing a dimerizable transcription factor domain unit (FRB fused with p65 activation domain and DNA binding domain ZFHD fused with 3 copies of FKBP) driven by the CMV promoter (the DNA construct shown in FIG. 9B; and (2) AAV vector expressing GFP-Luciferase driven by a promoter induced by the dimerized TF (see FIG. 19C for a diagram of the DNA constructs). Group 3 (G7, G8, and G9) received AAV vector expressing GFP-Luciferase under the control of a liver constitutive promoter, TBG (see FIG. 16C for a diagram of the DNA construct). Group 4 (G10, G11, G12) received co-injection of the following 2 AAV vectors: (1) AAV vector expressing a dimerizable transcription factor domain unit (FRB fused with p65 activation domain and DNA binding domain ZFHD fused with 3 copies of FKBP) driven by the TBG promoter; and (2) AAV vector expressing GFP-Luciferase driven by a promoter induced by the dimerized TF (see FIG. 16D for a diagram of the DNA constructs).
About 2 weeks post virus administration, the mice were given IP injection of the dimerizer, rapamycin, at the dose of 2 mg/kg. Starting the next day the luciferase expression was monitored by Xenogen imaging analysis. Approximately 24 hours post rapamycin injection, the mice were IP injected with luciferin, the substrate for luciferase, then anesthetized for imaging.

Test [2] concerns pCMV.Luciferase reporter gene in HEK293 cells. As to the kind of experiment: Ablation of luciferase reporter by FokI ablators cotransfected with pCMV.Luciferase. It is filed as cell-based, human. As to conditions: for expression of Luc reporter gene with increasing concentrations of ablator expression plasmid: 50 ng pCMV.Luciferase cotransfected with 6.25, 12.5, 25, 50 and 100 ng expression plasmid. As to the method: Open reading frames encoding for various endonucleases were codon optimized and de novo synthesized by GeneArt. Ablator expression and target plasmids were produced using standard molecular biological cloning techniques. Transfections were performed in HEK293 cells using Lipofectamine™ 2000 transfection reagent (Life Technologies). All transfections were performed using optimal transfection conditions as defined in transfection reagent protocol. Briefly, 200-250 ng plasmid DNA (excluding transfection control plasmid) was complexed with lipofectamine and added to cells in 96 well plates. DNA quantities were consistent across all conditions by supplementation with an unrelated plasmid containing the same promoter as test plasmids. Transfection complexes were incubated with cells for 4-6 hours as transfection reagent protocol before the addition of FBS supplemented media. Transfected cells were incubated at 37° C. for 24-72 hours. Following incubation, cells were assayed for reporter gene expression using Promega Dual Luciferase detection kit according to the manufacturer's instructions on a BioTek Clarity platereader and renilla luciferase was used to control for transfection efficiency. All samples were performed in quadruplicate and standard errors of the mean were calculated.

For test [3], the target named is ZFHD-FKBP fusion with 3 copies of FKBP (3xFKBP) (UniProt P62942). Briefly: cell-based or functional assay.
Chain of UniProt P62942 (P62942 other isoform, or with tags, fused parts or gaps): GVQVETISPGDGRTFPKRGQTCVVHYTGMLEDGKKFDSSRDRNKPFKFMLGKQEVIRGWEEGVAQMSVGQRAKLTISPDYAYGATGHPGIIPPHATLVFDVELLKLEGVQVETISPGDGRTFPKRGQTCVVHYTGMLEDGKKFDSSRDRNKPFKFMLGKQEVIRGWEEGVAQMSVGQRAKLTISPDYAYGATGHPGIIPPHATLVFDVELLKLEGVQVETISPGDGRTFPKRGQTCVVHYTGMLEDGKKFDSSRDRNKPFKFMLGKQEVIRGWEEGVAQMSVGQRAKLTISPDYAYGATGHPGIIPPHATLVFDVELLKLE

The results in this text go back to patent publication US20130023033A1, “PHARMACOLOGICALLY INDUCED TRANSGENE ABLATION SYSTEM” (The Trustees of the University of Pennsylvania, priority 2010, published 2013).

Entries after “also recorded” stand apart in the source; their conditions may differ.

For the molecule `CO[C@H]1C[C@@H]2CC[C@@H](C)[C@@](O)(O2)C(=O)C(=O)N2CCCC[C@H]2C(=O)O[C@H]([C@H](C)C[C@@H]2CC[C@@H](O)[C@H](OC)C2)CC(=O)[C@H](C)/C=C(\C)[C@@H](O)[C@@H](OC)C(=O)[C@H](C)C[C@H](C)/C=C/C=C/C=C/1C` [rapamycin], the “level of luciferase expression compared to level of pre-induction” value in test [1] (Group 2 mice (TF unit driven by CMV promoter + inducible GFP-Luciferase vector), 3×10^11 particles, about 24 h post rapamycin) is “more than 2 logs”. Besides, the “luciferase expression induced compared to pre-inducement” value in test [1] (Group 4 mice (TF unit driven by TBG promoter + inducible GFP-Luciferase vector), 3×10^11 particles, about 24 h post rapamycin) was “more than 100 fold”. Besides, the “peak level of luciferase expression over baseline” value in test [1] (dimerizer-inducible system) is listed as “more than 2 logs”.
For “ZFHD-FokI: FokI catalytic domain fused to a zinc finger homeodomain DNA binding domain (SEQ ID NO: 21), from expression plasmid”, the “expression of Luc reporter gene with increasing concentrations of ablator expression plasmid” value in test [2] is recorded as “dose dependent ablation; also recorded: effectively ablated expression of luciferase reporter in a dose dependent manner”.
In test [3], “FRB-TA fusion (FRB fragment of FRAP/mTOR, amino acids 2021-2113 with Thr2098Leu, fused to a 190 amino acid portion of human NF-KB p65)” came in with a luciferase expression in mice (Xenogen imaging) after rapamycin 2 mg/kg IP against pre-induction; Group 2, transcription factor domains driven by the CMV promoter of 2 logs and a luciferase expression in mice (Xenogen imaging) after rapamycin 2 mg/kg IP against pre-induction; Group 4, transcription factor domains driven by the TBG promoter above 100 fold.

B1: NLS-HTH-FokI: HTH-FokI with heterologous NLS added at the N-terminus of the coding sequence (protein)
chain: MPKKKRKVGRPPRLTKAEWEQAGRLLAQGIPRKQVALIYDVALSTLYKKHPAKRAHIENDDRINGTKQLVKSELEEKKSELRHKLKYVPHEYIELIEIARNPTQDRILEMKVMEFFMKVYGYRGEHLGGSRKPDGAIYTVGSPIDYGVIVDTKAYSGGYNLPIGQADEMQRYVEENQTRNKHINPNEWWKVYPSSVTEFKFLFVSGHFKGNYKAQLTRLNHITNCNGAVLSVEELLIGGEMIKAGTLTLEEVRRKFNNGEINF
modifications: SV40 NLS-Gin HTH-linker-FokI, coding sequence only; modified enzyme from SV40, Gin and FokI
For the molecule B1, in test [2] (compared with HTH-FokI without NLS, separate experiment (FIG. 27B)), the “activity (ablation of luciferase reporter) after adding heterologous NLS at the N-terminus” value was “further improved”.

B2: wild-type FokI: full-length FokI enzyme (SEQ ID NO: 12) expressed from cotransfected plasmid pCMV.FokI (protein)
chain: MFLSMVSKIRTFGWVQNPGKFENLKRVVQVFDRNSKVHNEVKNIKIPTLVKESKIQKELVAIMNQHDLIYTYKELVGTGTSIRSEAPCDAIIQATIADQGNKKGYIDNWSSDGFLRWAHALGFIEYINKSDSFVITDVGLAYSKSADGSAIEKEILIEAISSYPPAIRILTLLEDGQHLTKFDLGKNLGFSGESGFTSLPEGILLDTLANAMPKDKGEIRNNWEGSSDKYARMIGGWLDKLGLVKQGKKEFIIPTLGKPDNKEFISHAFKITGEGLKVLRRAKGSTKFTRVPKRVYWEMLATNLTDKEYVRTRRALILEILIKAGSLKIEQIQDNLKKLGFDEVIETIENDIKGLINTGIFIEIKGRFYQLKDHILQFVIPNRGVGTKQLVKSELEEKKSELRHKLKYVPHEYIELIEIARNPTQDRILEMKVMEFFMKVYGYRGEHLGGSRKPDGAIYTVGSPIDYGVIVDTKAYSGGYNLPIGQADEMQRYVEENQTRNKHINPNEWWKVYPSSVTEFKFLFVSGHFKGNYKAQLTRLNHITNCNGAVLSVEELLIGGEMIKAGTLTLEEVRRKFNNGEINF
On to B2, for which the “expression of the luciferase reporter gene” value in test [2] (50 ng pCMV.Luciferase, 200 ng pCMV.FokI or transfected FokI protein (FIG. 25A)) was “effective ablated expression”.

B3: untethered FokI: FokI catalytic domain alone, 198 amino acids (SEQ ID NO: 14), from expression plasmid (protein)
chain: MKQLVKSELEEKKSELRHKLKYVPHEYIELIEIARNPTQDRILEMKVMEFFMKVYGYRGEHLGGSRKPDGAIYTVGSPIDYGVIVDTKAYSGGYNLPIGQADEMQRYVEENQTRNKHINPNEWWKVYPSSVTEFKFLFVSGHFKGNYKAQLTRLNHITNCNGAVLSVEELLIGGEMIKAGTLTLEEVRRKFNNGEINF
In the case of B3, in test [2], the “expression of Luc reporter gene with increasing concentrations of ablator expression plasmid” value is listed as “no effect”.

B4: HTH-FokI: HTH from Gin, linker and FokI catalytic domain (SEQ ID NO: 6), from expression plasmid (protein)
chain: MGRPPRLTKAEWEQAGRLLAQGIPRKQVALIYDVALSTLYKKHPAKRAHIENDDRINGTKQLVKSELEEKKSELRHKLKYVPHEYIELIEIARNPTQDRILEMKVMEFFMKVYGYRGEHLGGSRKPDGAIYTVGSPIDYGVIVDTKAYSGGYNLPIGQADEMQRYVEENQTRNKHINPNEWWKVYPSSVTEFKFLFVSGHFKGNYKAQLTRLNHITNCNGAVLSVEELLIGGEMIKAGTLTLEEVRRKFNNGEINF
In the case of B4, in test [2], the “expression of Luc reporter gene with increasing concentrations of ablator expression plasmid” value is reported as “effectively ablated expression of luciferase reporter in a dose dependent manner”.
